Source: patent US20260248946A1 (TUOJIE BIOTECH SHANGHAI, published 2026)

Legend:
[1] = molecular target: T1, human CD79B-His protein (Cat. #29750-H08H, Sino Biological) (human, UniProt P40259 29-159); test: Biacore T200, antibody captured by anti-human capture antibody on CM5, 1:1 Langmuir fit; EC50
T1 construct: also called human CD79B protein; CD79B protein
T1 sequence (looked up): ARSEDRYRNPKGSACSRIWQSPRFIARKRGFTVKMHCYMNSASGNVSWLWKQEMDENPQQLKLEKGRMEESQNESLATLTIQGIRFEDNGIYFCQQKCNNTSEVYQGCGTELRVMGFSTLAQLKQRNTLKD
From the text: Experimental procedures: human antibody capture antibodies were covalently coupled to a CM5 biochip according to the method described instructions of the human antibody capture kit for affinity capture of a certain amount of CD79B antibody.
Statistics and analysis of data: data were fitted by BIAevaluation version 4.1, GE software using a (1:1) Langmuir model to obtain affinity values.

[2] = molecular target: T2, fusion protein of human CD79B extracellular domain (ECD) and His tag (human, UniProt P40259 29-159); test: ELISA on Human CD79B-His protein
T2 construct: also called human CD79B ECD-His; Human CD79B-His protein
T2 sequence: T1 sequence (looked up)

[3] = molecular target: T3, human CD79B on the surface of cells (DoHH2 / DOHH-2, WSU-DLCL2) (human, UniProt P40259 29-229); test: FACS on DoHH2 cells
T3 construct: whole, on cells; also called CD79B protein on the surface of DoHH2 cells; DoHH2 cell
T3 sequence (looked up): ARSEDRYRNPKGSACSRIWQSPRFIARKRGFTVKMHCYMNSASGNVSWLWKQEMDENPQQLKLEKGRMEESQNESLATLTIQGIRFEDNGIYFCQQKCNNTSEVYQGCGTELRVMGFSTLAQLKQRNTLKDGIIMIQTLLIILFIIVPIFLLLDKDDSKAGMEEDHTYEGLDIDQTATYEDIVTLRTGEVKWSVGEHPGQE

[4] = molecular target: T2, fusion protein of human CD79B …; test: SPR, Human CD79B-His protein

- EC50 [1]: 0.38 nM
- EC50 [2]: 0.05 nM
- EC50 [3]: 0.4 nM
- Kd [4]: 1.5 nM
B1: hAb015-10 (antibody, human IgG1, kappa, V domains shown)
VH: EVQLVQSGAEVKKPGSSVKVSCKASGSSFSSYGINWVKQAPGQGLEWIGEIFPRSGNTYYNEKFEGRATLTADKSTSTAYMELRSLRSEDTAVYYCAKGDLGDFDYWGQGTTVTVSS
VL: DFVMTQTPLSLPVTPGEPASISCRSSQSIVHSDGNTYFEWYLQKPGQSPKLLIYKVSNRFSGVPDRFSGSGSGTDFTLKISRVEAEDVGVYYCFQGSHVPWTFGGGTKVEIKR
notes: Humanized antibody; also called hAb015-10 humanized antibody; humanized mAb015
